The nature of this data set: confocal FL-CD19-GFP, WGA Pearson colocalisation, Nalm6 and 697. The note with it: glycan changed form; control: DMSO.

B1: CD19: swainsonine (protein)
parent chain: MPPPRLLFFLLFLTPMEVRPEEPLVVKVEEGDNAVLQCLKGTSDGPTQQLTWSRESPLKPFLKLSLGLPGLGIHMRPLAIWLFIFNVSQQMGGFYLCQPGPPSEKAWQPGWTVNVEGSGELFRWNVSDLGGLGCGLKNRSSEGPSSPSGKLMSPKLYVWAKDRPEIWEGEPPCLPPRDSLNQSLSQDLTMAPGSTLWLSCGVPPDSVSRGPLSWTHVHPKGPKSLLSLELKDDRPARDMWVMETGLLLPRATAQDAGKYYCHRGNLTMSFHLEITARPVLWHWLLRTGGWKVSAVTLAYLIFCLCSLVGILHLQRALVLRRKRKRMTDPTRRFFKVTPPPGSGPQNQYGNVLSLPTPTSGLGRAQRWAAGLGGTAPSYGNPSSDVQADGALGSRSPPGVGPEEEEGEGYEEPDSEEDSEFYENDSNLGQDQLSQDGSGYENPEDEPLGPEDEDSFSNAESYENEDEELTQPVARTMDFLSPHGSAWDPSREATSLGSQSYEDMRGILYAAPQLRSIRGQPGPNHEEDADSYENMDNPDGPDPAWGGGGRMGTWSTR
Regarding B1, the localisation_or_trafficking result is listed as “no change”.

The values above are taken from publication PMC6189457.
